Assay results as given in patent US10087225B2, “Formulation of MK2 inhibitor peptides” (MOERAE MATRIX, INC., priority 2015, dated 2018).

What was measured:
Assay in all cases: Kinase Profiling Assay
Format in all cases: biochemical
Conditions in all cases: for % activity: 100 μM
Ax1(h) = Ax1(h) (Homo sapiens, UniProt P30530)
KDR(h) = KDR(h) (Homo sapiens, UniProt P35968)
ULK3(h) = target: T1, ULK3(h) (Homo sapiens, UniProt Q6PHR2)
T1 sequence (Q6PHR2 1-472): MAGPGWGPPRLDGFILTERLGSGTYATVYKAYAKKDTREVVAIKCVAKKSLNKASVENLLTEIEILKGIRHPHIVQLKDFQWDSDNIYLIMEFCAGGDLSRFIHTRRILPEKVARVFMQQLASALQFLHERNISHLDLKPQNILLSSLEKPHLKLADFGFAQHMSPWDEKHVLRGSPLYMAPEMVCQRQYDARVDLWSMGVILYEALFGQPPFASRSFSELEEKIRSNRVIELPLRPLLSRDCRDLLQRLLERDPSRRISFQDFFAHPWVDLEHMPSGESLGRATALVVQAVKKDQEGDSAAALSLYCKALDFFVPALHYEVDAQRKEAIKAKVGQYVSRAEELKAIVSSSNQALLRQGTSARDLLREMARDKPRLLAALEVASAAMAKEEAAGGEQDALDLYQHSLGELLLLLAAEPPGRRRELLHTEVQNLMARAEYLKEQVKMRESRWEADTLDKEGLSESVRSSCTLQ

CK2(h) = CK2(h) (Homo sapiens, UniProt P68400)
CK2(h), sequence (P68400 whole entry): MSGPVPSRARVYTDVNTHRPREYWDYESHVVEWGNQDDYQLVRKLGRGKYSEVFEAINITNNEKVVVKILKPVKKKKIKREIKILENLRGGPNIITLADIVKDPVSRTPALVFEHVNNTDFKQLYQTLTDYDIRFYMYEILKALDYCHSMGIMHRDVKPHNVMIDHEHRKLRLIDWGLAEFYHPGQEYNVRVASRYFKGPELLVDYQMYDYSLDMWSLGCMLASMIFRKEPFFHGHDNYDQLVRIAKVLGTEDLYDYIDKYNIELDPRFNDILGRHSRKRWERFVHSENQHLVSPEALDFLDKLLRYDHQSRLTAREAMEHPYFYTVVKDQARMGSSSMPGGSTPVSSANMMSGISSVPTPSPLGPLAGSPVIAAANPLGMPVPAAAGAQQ
CK2(h), sequence (P67870 whole entry partner): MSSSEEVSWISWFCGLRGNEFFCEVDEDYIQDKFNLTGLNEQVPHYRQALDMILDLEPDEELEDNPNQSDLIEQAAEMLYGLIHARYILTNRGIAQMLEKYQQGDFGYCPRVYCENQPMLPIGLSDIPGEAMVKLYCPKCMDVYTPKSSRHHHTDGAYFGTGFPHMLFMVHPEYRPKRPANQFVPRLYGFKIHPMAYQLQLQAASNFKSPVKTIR

FGFR3(h) = FGFR3(h) (Homo sapiens, UniProt P22607)
FGFR3(h), sequence (P22607 23-806): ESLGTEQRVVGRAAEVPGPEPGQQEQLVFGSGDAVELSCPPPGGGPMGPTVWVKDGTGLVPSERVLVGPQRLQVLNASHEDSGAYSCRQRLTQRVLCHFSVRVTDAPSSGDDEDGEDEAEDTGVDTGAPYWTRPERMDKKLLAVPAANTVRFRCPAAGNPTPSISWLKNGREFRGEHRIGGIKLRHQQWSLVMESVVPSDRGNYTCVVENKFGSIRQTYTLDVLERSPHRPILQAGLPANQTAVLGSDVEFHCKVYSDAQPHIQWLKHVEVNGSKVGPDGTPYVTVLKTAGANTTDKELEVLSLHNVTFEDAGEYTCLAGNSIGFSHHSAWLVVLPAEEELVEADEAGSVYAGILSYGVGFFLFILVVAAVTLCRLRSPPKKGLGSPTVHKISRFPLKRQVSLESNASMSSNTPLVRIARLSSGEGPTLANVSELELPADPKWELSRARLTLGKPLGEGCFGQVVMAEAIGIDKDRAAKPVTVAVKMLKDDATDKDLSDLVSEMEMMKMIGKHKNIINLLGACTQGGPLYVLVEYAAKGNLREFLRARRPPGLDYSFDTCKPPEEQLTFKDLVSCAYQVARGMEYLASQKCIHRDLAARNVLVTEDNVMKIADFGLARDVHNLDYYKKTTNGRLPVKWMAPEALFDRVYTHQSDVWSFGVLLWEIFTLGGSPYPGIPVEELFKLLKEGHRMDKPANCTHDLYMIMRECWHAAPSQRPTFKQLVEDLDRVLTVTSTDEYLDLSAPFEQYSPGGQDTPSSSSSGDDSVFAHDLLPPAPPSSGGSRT

ARK5(h) = target: T2, ARK5(h) (Homo sapiens, UniProt O60285)
T2 sequence (O60285 1-661): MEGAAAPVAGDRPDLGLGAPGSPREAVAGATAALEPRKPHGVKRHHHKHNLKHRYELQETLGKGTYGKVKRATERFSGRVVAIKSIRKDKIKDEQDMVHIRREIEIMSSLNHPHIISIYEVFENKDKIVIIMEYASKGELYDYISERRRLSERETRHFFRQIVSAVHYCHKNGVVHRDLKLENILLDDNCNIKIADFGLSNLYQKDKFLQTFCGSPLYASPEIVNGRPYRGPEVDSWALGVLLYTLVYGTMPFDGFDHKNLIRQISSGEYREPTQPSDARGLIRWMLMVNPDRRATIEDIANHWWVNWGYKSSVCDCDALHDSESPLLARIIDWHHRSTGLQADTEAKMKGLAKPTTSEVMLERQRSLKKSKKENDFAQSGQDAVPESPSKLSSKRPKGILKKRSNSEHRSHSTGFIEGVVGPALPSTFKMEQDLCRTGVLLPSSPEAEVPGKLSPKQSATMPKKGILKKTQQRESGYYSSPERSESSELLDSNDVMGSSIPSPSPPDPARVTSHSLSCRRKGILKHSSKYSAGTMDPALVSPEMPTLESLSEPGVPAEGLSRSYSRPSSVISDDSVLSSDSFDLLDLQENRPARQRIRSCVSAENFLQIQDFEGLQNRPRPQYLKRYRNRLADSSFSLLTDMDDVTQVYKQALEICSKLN

EphA5(h) = EphA5(h) (Homo sapiens, UniProt P54756)
EphA5(h), sequence (P54756 25-1037): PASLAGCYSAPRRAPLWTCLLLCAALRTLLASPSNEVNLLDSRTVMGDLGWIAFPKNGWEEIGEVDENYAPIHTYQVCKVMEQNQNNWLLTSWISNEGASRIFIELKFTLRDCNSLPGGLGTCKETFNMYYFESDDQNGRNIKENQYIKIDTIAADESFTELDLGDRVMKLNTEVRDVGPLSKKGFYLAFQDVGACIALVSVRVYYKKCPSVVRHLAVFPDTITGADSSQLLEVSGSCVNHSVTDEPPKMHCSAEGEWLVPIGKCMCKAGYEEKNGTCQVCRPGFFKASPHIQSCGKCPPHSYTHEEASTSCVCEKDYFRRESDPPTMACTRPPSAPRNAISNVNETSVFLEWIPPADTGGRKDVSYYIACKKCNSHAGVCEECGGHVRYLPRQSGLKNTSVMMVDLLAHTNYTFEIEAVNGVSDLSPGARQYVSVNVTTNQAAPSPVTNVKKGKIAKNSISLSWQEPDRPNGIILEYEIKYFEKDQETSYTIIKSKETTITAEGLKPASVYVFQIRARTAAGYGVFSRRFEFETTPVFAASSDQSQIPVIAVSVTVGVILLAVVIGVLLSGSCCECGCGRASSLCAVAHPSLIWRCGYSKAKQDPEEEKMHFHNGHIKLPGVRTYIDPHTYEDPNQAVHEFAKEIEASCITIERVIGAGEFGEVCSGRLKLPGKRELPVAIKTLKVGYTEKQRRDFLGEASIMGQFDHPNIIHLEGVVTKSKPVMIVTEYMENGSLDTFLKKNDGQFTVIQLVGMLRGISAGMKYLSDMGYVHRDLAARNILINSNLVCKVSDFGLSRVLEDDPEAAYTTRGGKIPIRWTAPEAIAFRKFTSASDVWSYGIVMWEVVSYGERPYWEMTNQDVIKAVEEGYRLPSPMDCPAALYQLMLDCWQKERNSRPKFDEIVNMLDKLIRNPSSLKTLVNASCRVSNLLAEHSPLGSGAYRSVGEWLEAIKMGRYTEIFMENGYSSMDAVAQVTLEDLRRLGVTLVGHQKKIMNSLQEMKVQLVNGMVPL

Rsk4(h) = Rsk4(h) (Homo sapiens, UniProt Q9UK32)
Rsk4(h), sequence (Q9UK32 whole entry): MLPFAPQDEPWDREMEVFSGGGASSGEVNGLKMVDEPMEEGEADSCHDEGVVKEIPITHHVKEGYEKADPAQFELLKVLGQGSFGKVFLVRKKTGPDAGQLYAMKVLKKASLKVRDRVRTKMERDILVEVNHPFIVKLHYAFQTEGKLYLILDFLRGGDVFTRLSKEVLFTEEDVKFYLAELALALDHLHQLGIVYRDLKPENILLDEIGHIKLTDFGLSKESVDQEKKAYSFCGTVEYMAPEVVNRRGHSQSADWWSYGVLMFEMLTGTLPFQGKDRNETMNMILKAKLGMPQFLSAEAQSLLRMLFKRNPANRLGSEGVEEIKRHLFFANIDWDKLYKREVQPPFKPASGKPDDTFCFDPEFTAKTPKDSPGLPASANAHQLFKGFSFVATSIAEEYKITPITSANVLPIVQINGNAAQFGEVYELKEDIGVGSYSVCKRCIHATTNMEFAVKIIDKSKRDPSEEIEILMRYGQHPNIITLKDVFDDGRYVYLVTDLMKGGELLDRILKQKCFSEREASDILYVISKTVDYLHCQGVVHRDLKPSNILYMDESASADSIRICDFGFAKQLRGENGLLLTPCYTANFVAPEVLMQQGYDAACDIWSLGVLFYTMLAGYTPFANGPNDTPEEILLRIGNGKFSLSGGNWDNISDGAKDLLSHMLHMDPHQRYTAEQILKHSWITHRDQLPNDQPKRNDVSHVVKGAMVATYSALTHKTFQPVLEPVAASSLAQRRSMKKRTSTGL

CSK(h) = CSK(h) (Homo sapiens, UniProt P41240)
CSK(h), sequence (P41240 whole entry): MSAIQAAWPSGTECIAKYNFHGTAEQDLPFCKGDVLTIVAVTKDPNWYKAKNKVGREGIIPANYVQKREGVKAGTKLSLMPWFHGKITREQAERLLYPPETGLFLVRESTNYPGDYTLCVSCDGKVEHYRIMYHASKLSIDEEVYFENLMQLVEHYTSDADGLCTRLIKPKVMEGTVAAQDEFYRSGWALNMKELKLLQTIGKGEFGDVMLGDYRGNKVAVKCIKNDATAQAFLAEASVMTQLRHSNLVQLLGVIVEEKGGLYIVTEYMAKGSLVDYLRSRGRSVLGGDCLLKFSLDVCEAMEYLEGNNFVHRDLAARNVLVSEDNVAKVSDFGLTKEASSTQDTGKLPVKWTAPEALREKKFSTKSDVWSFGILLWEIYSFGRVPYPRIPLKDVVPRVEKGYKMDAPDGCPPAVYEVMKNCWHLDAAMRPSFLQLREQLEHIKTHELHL

ULK2(h) = target: T3, ULK2(h) (Homo sapiens, UniProt Q8IYT8)
T3 sequence (Q8IYT8 1-1036): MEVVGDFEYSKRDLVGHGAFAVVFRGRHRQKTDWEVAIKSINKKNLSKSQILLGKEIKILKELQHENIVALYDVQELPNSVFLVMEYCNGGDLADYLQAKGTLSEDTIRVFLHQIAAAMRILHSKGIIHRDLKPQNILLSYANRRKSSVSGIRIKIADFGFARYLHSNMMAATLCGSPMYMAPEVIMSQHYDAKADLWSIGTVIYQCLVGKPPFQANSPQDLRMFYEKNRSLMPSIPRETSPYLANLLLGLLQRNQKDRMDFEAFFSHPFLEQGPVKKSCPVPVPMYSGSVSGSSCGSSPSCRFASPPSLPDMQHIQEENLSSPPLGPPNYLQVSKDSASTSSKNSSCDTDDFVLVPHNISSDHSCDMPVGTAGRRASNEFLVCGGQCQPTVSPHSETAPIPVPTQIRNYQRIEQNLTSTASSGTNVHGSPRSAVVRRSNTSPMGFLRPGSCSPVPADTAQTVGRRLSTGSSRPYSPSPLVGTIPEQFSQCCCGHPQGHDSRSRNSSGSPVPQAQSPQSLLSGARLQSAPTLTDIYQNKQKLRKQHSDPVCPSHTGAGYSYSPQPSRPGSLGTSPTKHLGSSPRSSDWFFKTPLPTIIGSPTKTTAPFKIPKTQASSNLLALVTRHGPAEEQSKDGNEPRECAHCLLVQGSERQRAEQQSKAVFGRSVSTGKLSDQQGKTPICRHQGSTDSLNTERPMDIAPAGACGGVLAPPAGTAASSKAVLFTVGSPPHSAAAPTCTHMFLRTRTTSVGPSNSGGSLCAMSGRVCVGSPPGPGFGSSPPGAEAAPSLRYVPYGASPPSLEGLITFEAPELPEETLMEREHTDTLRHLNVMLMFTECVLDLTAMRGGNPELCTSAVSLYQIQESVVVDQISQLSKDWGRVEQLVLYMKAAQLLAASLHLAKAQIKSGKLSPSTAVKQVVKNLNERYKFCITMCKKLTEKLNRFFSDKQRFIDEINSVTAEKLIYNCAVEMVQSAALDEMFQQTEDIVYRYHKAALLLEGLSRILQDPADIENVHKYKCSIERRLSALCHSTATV

SRPK1(h) = SRPK1(h) (Homo sapiens, UniProt Q96SB4)

KDR(h), sequence (P35968 20-1356): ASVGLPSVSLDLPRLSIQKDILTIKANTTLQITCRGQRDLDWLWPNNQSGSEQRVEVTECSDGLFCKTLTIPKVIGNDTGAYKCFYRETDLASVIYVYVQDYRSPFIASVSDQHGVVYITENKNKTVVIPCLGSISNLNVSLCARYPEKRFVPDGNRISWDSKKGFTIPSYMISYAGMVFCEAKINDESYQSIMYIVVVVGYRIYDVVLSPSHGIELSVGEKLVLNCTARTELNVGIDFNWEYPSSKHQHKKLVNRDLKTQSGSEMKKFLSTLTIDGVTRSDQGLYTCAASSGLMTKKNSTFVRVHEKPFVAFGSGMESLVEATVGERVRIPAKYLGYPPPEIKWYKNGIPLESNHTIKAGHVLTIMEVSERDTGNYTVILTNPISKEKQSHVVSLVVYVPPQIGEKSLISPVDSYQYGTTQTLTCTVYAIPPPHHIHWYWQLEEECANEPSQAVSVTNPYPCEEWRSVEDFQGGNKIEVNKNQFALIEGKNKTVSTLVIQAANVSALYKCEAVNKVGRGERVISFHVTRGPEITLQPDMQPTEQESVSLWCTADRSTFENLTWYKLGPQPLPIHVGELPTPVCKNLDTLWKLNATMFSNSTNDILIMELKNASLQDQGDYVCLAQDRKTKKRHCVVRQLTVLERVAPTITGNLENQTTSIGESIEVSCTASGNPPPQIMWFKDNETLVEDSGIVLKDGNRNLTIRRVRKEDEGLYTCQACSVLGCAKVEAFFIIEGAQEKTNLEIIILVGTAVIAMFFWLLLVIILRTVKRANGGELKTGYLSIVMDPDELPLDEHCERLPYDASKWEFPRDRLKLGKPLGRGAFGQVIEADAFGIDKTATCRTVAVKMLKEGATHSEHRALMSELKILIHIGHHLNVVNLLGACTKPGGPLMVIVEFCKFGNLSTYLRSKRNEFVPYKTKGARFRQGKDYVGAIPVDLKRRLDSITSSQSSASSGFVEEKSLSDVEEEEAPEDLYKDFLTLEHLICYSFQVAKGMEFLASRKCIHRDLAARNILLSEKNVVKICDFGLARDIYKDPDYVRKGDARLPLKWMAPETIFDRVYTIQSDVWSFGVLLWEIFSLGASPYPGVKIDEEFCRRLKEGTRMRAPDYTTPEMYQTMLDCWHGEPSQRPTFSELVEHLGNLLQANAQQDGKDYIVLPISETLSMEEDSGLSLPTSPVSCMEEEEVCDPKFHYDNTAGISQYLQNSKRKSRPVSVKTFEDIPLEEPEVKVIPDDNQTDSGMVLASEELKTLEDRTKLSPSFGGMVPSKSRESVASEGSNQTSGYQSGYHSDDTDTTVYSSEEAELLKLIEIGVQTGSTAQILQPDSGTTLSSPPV

| Substance | % activity (Ax1(h)) | % activity (KDR(h)) | % activity (ULK3(h)) | % activity (CK2(h)) | % activity (FGFR3(h)) | % activity (ARK5(h)) | % activity (EphA5(h)) | % activity (Rsk4(h)) | % activity (CSK(h)) | % activity (ULK2(h)) | % activity (SRPK1(h)) | also measured |
| --- | --- | --- | --- | --- | --- | --- | --- | --- | --- | --- | --- | --- |
| H-YARAAARQARAKALARQLGVAA-OH [MMI-0100] |  |  |  |  |  |  |  |  |  |  |  | activity at 100 µM (Ax1(h)): 81%; activity at 100 µM (KDR(h)): 100%; activity at 100 µM (ULK3(h)): 142%; activity at 100 µM (CK2(h)): 90%; activity at 100 µM (FGFR3(h)): 73%; activity at 100 µM (ARK5(h)): 108%; activity at 100 µM (EphA5(h)): 110%; activity at 100 µM (Rsk4(h)): 99%; activity at 100 µM (CSK(h)): 70%; activity at 100 µM (ULK2(h)): 123%; activity at 100 µM (SRPK1(h)): 69% |
| HRRIKAWLKKIKALARQLGVAA (Mammalian) [MMI-0500] | 12% | 15% | 177% | 93% | 10% | 20% | 42% | 29% | 2% | 124% | 80% |  |
| YARAAARQARAKALNRQLGVA (Mammalian) [MMI-0200] | 99% | 110% | 164% | 83% | 208% | 93% | 123% | 125% | 33% | 132% | 93% |  |
